Experimental data reported in patent US20250250330A1 (REVOPSIS THERAPEUTICS, published 2025).
Several values for one entry are separate records, joined by “and”; a condition that tells them apart may be missing. Equal values may be shown once.

Columns and labels:
[1] = target: T1, rdANG-2 (canine/dog; Creative Biolab_Vang-3062Lsx) (Canine/Dog, UniProt A0A8J8 19-495, limits assumed); experiment: ELISA on coated dog ANG-2
T1 construct: also called Dog ANG-2
T1 sequence (looked up): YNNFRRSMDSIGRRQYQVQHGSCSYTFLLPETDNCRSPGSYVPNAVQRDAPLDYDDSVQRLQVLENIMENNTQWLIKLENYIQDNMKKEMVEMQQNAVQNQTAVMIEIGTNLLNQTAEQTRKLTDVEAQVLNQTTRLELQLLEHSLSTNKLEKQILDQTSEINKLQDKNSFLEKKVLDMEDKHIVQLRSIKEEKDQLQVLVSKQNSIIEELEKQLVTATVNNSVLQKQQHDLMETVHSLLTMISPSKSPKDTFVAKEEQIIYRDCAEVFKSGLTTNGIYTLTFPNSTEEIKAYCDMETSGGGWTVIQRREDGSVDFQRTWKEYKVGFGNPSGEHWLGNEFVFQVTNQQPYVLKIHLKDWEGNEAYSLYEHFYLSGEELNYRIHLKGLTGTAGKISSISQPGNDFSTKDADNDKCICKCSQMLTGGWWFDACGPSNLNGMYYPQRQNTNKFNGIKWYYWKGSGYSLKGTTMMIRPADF

[2] = target: T2, Recombinant human VEGF121 (Peprotech, Cat #100-20A) (human, UniProt P15692-9 27-147); experiment: ELISA; rhVEGF121 coated, anti-human IgG Fc-HRP detection
T2 construct: Bought protein; also called rhVEGF121; rh VEGF121
T2 sequence (looked up): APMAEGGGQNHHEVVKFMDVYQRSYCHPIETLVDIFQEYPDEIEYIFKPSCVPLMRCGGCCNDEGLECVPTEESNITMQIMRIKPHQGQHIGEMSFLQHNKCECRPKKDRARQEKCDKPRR
Experimental: Donkey anti-human IgG Fcγ-HRP was used for detection (Jackson ImmunoResearch Laboratories, Cat #709-035-098) and visualized by TMB substrate. OD450 nm readings were measured by Victor 3 (PerkinElmer 1420 Multilabel Counter).

[3] = target: T3, Recombinant human VEGF165 (Peprotech, Cat #100-20) (human, UniProt P15692-4 27-191); experiment: ELISA; rhVEGF165 coated at 1 ug/mL, anti-human IgG Fc-HRP detection (RO-101_Sample 1)
T3 construct: Bought protein; also called rhVEGF165; rh VEGF165
T3 sequence (P15692 other isoform, or with tags, fused parts or gaps limits assumed): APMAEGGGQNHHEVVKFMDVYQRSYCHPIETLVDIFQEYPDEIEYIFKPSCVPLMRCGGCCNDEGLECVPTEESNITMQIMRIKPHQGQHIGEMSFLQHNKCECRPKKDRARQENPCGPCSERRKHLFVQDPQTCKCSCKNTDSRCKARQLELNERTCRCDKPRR
Experimental: (§1) Donkey anti-human IgG Fcγ-HRP (Jackson ImmunoResearch Laboratories, Cat #709-035-098) was used for detection and visualized by TMB substrate. OD450 nm readings were measured by Victor 3 (PerkinElmer 1420 Multilabel Counter).

[4] = target: T2, Recombinant human VEGF121 (Peprotech, …); experiment: ELISA; rhVEGF121 coated at 1 ug/mL, anti-human IgG Fc-HRP detection (RO-101_Sample 1)
Experimental: as §1

[5] = target: T4, rpVEGF164 (porcine/pig; AssayGenie_KPRT0149) (Porcine/Pig, UniProt P49151 27-190); experiment: ELISA on coated pig VEGF-A
T4 construct: Bought protein; also called Pig VEGF-A
T4 sequence (looked up): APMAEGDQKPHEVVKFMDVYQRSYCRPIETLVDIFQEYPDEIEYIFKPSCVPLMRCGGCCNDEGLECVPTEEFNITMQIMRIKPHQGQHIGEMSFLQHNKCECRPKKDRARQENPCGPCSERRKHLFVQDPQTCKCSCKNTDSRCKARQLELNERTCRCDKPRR

[6] = target: T5, His-tagged recombinant human ANG-2 (AcroBiosystems, Cat #AN2-H52H4) (human, UniProt O15123 275-496); experiment: ELISA; rhANG-2 (AcroBiosystems) coated, anti-human IgG Fc-HRP detection
T5 construct: also called rhANG-2; rhANG-2-His; not shown: His tag
T5 sequence (looked up): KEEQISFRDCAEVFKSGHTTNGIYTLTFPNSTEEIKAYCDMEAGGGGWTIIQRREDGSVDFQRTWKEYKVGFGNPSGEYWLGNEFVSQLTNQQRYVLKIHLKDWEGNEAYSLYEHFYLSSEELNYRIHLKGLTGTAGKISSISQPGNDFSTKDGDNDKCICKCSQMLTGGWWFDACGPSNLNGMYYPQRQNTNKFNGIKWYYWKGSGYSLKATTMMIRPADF
Experimental: Donkey anti-human IgG Fcγ-HRP (Jackson ImmunoResearch Laboratories, Cat #709-035-098) was used for detection and visualized by TMB substrate. OD450 nm readings were measured by Victor 3 with PerkinElmer 1420 Multilabel Counter.

[7] = target: T5, His-tagged recombinant human ANG-2 …; experiment: ELISA on rhANG-2; biotinylated anti-VpreB antibody and streptavidin-HRP detection; SgG format; anti-VpreB detection
Experimental: SgG1 was diluted in blocking buffer at a starting concentration of 10 nM. Sab and scSv were diluted in blocking buffer at a starting concentration of 100 nM. They were then 1:3 serial diluted.

[8] = target: T5, His-tagged recombinant human ANG-2 …; experiment: ELISA on coated human ANG-2
[9] = target: T6, Recombinant human ANG-2 (R&D Systems, Cat #623-AN-025/CF) (human, UniProt O15123 19-496, limits assumed); experiment: ELISA on rhANG-2 by an independent team; ratio of average EC50 against Faricimab
T6 construct: also called rhANG-2
T6 sequence (looked up): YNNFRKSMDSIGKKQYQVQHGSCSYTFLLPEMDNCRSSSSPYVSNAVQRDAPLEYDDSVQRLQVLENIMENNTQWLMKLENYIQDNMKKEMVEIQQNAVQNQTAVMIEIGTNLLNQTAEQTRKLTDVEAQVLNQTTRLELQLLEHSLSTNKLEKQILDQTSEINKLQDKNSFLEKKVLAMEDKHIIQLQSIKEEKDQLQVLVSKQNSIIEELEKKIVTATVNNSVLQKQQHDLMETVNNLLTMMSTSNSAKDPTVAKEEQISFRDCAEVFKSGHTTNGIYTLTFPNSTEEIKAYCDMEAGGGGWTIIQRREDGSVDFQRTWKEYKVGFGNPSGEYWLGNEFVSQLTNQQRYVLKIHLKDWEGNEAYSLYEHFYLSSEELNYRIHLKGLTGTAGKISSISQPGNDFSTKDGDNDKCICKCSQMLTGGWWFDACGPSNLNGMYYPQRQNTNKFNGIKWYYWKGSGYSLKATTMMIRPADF

B1: RO-101 VEGF/ANG-2 bispecific surrobody (bispecific antibody, human IgG1, L234A L235A)
heavy 1: not shown
heavy 2: EVQLVESGGGLVKPGGSLRLSCAASGFTFSSYGMHWVRQAPGKGLEWVAGISADSGDKNYADSVKGRFTISRDNAKNSLYLQMNSLRAEDTAVYYCAKEFISWIYTFDYLDYWGQGTLVTVSSASTKGPSVFPLAPSSKSTSGGTAALGCLVKDYFPEPVTVSWNSGALTSGVHTFPAVLQSSGLYSLSSVVTVPSSSLGTQTYICNVNHKPSNTKVDKKVEPKSCDKTHTCPPCPAPEAAGGPSVFLFPPKPKDTLMISRTPEVTCVVVDVSHEDPEVKFNWYVDGVEVHNAKTKPREEQYNSTYRVVSVLTVLHQDWLNGKEYKCKVSNKALPAPIEKTISKAKGQPREPQVCTLPPSRDELTKNQVSLSCAVKGFYPSDIAVEWESNGQPENNYKTTPPVLDSDGSFFLVSKLTVDKSRWQQGNVFSCSVMHEALHNHYTQKSLSLSPG
light: QPVLHQPPAMSSALGTTIRLTCTLRNDHDIGVYSVYWYQQRPGHPPRFLLRYFSQSDKSQGPQVPPRFSGSKDVARNRGYLSISELQPEDEAMYYCAMGARSSVTHVFGSGTQLTVLSQPKATPSVTLFPPSSEELQANKATLVCLMNDFYPGILTVTWKADGTPITQGVEMTTPSKQSNNKYAASSYLSLTPEQWRSRRSYSCQVMHEGSTVEKTVAPAECS
notes: Format SgG1; also called Sample 1
EC50 [1]: 0.0135 nM
EC50 [2]: 0.0086 nM
EC50 [3]: 0.0135 nM
EC50 [4]: 0.0146 nM
EC50 [5]: 0.0198 nM
EC50 [6]: 0.0118 nM and 0.0138 nM
EC50 [7]: 0.0257 nM
EC50 [8]: 0.007 nM
fold better than Faricimab [9]: 58 fold
